In article PMC4673130 one finds stoichiometry N data, which are given here for 1 molecule.

The assay has as its target T1, HA-tetherin (wild type), Q10589.
T1 chain: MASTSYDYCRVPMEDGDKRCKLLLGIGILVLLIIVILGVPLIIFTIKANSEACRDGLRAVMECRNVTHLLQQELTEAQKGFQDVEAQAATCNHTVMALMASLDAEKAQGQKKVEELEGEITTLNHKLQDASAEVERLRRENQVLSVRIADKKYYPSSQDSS
The assay can be described thus: non-reducing SDS-PAGE and immunoblot; lysates of HEK293 cells transfected with HA-tetherin with or without SHBs plasmids; SDS-PAGE in the absence or presence of 2-mercaptoethanol, blot with anti-HA; dimer and monomer bands. Conditions: remark: other sources report otherwise. For orientation: Immunoblotting shows a protein as a band on a membrane.

B1: HA-tetherin (wild type), Q10589 1-161 (natural protein)
chain: T1 chain
Broadly, the stoichiometry N is a count of units in the complex or per binding partner. For B1, the stoichiometry N turned out to be 2.
